Test results: patent US20220249369

Experiments:
[1] = tested on: T1, QARGGSK
T1 sequence: QARGGSK

[2] = tested on: T2, KTTGGRIYGG
T2 sequence: KTTGGRIYGG

[3] = tested on: T3, CC6, 5FAM-KYLGRSYKV-K(CPQ2)-C
T3 sequence: KYLGRSYKVKC

[4] = tested on: T4, CC9, 5FAM-GLQRALEI-K(CPQ2)-k-C
T4 sequence: GLQRALEIKKC

Sequence of Plasmin (P00747 20-580): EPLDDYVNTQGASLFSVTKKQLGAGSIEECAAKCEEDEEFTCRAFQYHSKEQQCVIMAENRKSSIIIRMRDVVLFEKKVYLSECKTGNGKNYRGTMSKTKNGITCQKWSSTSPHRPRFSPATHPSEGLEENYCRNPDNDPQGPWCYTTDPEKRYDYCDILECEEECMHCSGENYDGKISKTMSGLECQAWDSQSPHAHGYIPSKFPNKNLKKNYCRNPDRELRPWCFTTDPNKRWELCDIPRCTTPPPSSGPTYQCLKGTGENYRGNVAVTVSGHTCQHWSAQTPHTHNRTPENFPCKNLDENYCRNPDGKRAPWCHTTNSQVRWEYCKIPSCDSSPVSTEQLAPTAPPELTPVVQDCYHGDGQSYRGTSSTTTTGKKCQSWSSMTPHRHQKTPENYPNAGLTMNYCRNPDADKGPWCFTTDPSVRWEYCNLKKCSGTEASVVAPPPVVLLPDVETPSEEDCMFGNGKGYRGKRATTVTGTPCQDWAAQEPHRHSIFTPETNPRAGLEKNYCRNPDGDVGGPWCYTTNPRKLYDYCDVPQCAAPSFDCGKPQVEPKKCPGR
Sequence of Plasmin (P00747 581-810): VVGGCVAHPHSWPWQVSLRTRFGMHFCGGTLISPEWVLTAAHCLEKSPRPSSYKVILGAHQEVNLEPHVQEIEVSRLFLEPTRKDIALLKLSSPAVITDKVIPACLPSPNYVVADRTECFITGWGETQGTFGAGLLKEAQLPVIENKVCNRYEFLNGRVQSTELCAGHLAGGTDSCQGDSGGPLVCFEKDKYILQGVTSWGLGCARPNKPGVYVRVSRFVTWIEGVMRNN

Substance	protease cleavage velocity [1]	protease cleavage velocity [2]	relative cleavage velocity (L-gate) [3]	relative cleavage velocity (state 0 probability) after the first U-gate [4] [%]	relative cleavage velocity (state 0 probability) after the second U-gate (state 0 substrate in large molar excess) [4] [%]	relative cleavage velocity (state 1 probability) after the first U-gate [3] [%]
Thrombin	thrombin cleaving two different peptide substrates (KTTGGRIYGG (SEQ ID NO:2) and QARGGSK (SEQ ID NO:3))	thrombin cleaving two different peptide substrates (KTTGGRIYGG (SEQ ID NO:2) and QARGGSK (SEQ ID NO:3))	adding substrate-1 (KYLGRSYKV (SEQ ID NO:5)) to control b0 (e.g., plasmin) and target bi (e.g., thrombin) at a concentration such that the relative cleavage velocities (rcv) were matched			
Plasmin			adding substrate-1 (KYLGRSYKV (SEQ ID NO:5)) to control b0 (e.g., plasmin) and target bi (e.g., thrombin) at a concentration such that the relative cleavage velocities (rcv) were matched	45	93	55
